Changes are numbered by the printed parent chain. Several values for one entry are separate records, joined by “and”; a condition that tells them apart may be missing. Equal entries are not always repeated.
Columns and labels:
[1] = biological target: T1, recombinant soluble human MICA*008 antigen (human, UniProt Q29983 24-307); test: BLI (Octet) sandwich binning on soluble MICA allele 8, row antibody captured; competitor (second antibody): MICA.39
T1 construct: also called huIMICA-his allele *008; recombinant soluble MICA (allele 8)
T1 chain: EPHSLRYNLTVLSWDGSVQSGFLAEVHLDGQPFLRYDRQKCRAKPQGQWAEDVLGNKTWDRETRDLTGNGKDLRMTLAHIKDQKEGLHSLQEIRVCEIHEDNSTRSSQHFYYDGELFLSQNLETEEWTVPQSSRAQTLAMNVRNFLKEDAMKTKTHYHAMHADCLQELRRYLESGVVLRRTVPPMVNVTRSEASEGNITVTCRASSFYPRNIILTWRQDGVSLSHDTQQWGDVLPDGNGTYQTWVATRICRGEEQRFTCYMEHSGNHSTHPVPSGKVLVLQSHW
Protocol: (§1) The binning experiments were performed on an Octet HTX instrument at 25° C. in HEPES buffered saline (10 mM HEPES pH 7.4, 150 mM NaCl, 0.05% v/v surfactant P20, and 1 mg/mL BSA). Anti-MICA/B antibodies and NKG2D-mFc were captured on anti-Fc tips and remaining capture sites were blocked with an excess of negative control IgG. Recombinant soluble MICA (allele 8) was bound and subsequent binding (“sandwiching”) of anti-MICA/B antibodies was tested.

[2] = biological target: T1, recombinant soluble human MICA*008 …; test: BLI (Octet) sandwich binning on soluble MICA allele 8, row antibody captured; competitor (second antibody): MICA.38
Protocol: as §1

[3] = biological target: T1, recombinant soluble human MICA*008 …; test: BLI (Octet) sandwich binning on soluble MICA allele 8, row antibody captured; competitor (second antibody): MICA.36
Protocol: as §1

[4] = biological target: T2, recombinant soluble human MICA*004 antigen (human, UniProt Q29983 24-307); test: SPR (Biacore T200, 37 C), antibody captured on anti-human Fc, antigen 500 and 50 nM
T2 construct: also called huIMICA-his allele *004
T2 chain: T1 chain with L122V, G175S, T181R, I213T, T215S, W216T, R251Q
Protocol: (§2) Anti-MICA/B antibodies were captured to α-human Fc surfaces. MICA allele antigens were injected at high and low nanomolar concentrations (500 nM and 50 nM, except indicated otherwise). The results for antibodies MICA.36 and MICA.38 (MICA.2 with a Ser inserted between residues 95 and 96 in the light chain) are shown in Table 2 below.

[5] = biological target: T1, recombinant soluble human MICA*008 …; test: as above
Protocol: as §2

[6] = biological target: T3, recombinant soluble human MICA*002 antigen (human, UniProt Q29983 24-307); test: as above
T3 construct: also called huIMICA-his allele *002
T3 chain: T1 chain with W14G, Y36C, V129M, E173K, S206G, R210W, I213T, T215S, R251Q
Protocol: as §2

[7] = biological target: T4, recombinant soluble human MICA*009 antigen (human, UniProt Q29983 24-307); test: as above
T4 construct: also called huIMICA-his allele *009
T4 chain: T1 chain with G175S, I213T, R251Q
Protocol: as §2

[8] = biological target: T1, recombinant soluble human MICA*008 …; test: BLI (Octet) sandwich binning on soluble MICA allele 8, row antibody captured; competitor (second antibody): MICA.40
Protocol: as §1

[9] = biological target: T1, recombinant soluble human MICA*008 …; test: BLI (Octet) sandwich binning on soluble MICA allele 8, row antibody captured; competitor (second antibody): MICA.2
Protocol: as §1

[10] = biological target: T2, recombinant soluble human MICA*004 …; test: SPR (Biacore 3000), antibody captured on Protein G chip, huMICA-his analyte
Protocol: (§3) Kinetics and affinity of anti-MICA/B antibodies MICA.2, 19G6, 16A5, and 71C2 towards human MICA alleles (huIMICA-his allele *002, *004, *008, and *009) were also determined on a BIACORE 3000® instrument using the following conditions: [0571] Running Buffer: HES-EP running buffer [0572] Chip: CM5 Protein G Chip Fc1: Blank. Fc2-4: ˜200Rus [0573] Ab: 5 ug/mL, 10 uL @ 10 uL/min [0574] Ag binding: 5 min association, 7 min dissociation @ 25 uL/min, [0575] Regeneration: Glycine 1.7, 10 uL @ 100 uL/min followed by 60s wash by HES-EP

[11] = biological target: T1, recombinant soluble human MICA*008 …; test: as above
Protocol: as §3

[12] = biological target: T3, recombinant soluble human MICA*002 …; test: as above
Protocol: as §3

[13] = biological target: T4, recombinant soluble human MICA*009 …; test: as above
Protocol: as §3

[14] = biological target: T5, human MICB expressed on transduced cells (human, UniProt Q29980 23-382); test: flow cytometry, transfected CHO cells
T5 construct: also called MICB*005
T5 chain: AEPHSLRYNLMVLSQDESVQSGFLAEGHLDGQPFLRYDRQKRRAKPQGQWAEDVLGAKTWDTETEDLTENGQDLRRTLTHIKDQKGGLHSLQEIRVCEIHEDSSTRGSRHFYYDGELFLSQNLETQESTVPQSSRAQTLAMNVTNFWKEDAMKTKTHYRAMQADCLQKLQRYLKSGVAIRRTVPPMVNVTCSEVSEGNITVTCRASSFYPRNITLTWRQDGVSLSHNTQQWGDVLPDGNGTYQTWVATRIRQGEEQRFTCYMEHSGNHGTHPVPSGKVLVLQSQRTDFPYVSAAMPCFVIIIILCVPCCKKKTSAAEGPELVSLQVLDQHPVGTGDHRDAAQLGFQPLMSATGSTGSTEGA

[15] = biological target: T6, cynomolgus monkey MICA/B clone #4 expressed on CHO cells (cynomolgus monkey); test: flow cytometry, transfected CHO cells
T6 construct: whole, on cells; also called cyno#4; CHO-cyno MICA clone #4

[16] = biological target: T7, cynomolgus monkey MICA/B clone #6 expressed on CHO cells (cynomolgus monkey); test: flow cytometry, transfected CHO cells
T7 construct: whole, on cells; also called cyno#6; CHO-cyno MICA clone #6

[17] = biological target: T2, recombinant soluble human MICA*004 …; test: SPR (Biacore 3000), antibody captured on Protein G chip, huMICA-his analyte; power of ten not given
Protocol: as §3

[18] = biological target: T1, recombinant soluble human MICA*008 …; test: as above
Protocol: as §3

[19] = biological target: T3, recombinant soluble human MICA*002 …; test: as above
Protocol: as §3

[20] = biological target: T4, recombinant soluble human MICA*009 …; test: as above
Protocol: as §3

B1: MICA.38 (antibody, V domains shown)
VH: EVQLVESGGGLVQPGGSLRLSCAASGFTFSTYSMNWVRQAPGKGLEWVSYISYRSRTIYYADSVKGRFTISRDNARNSLYLQMNSLRDEDTAVYYCARWGYGSGGFDYWGQGTLVTVSS
VL: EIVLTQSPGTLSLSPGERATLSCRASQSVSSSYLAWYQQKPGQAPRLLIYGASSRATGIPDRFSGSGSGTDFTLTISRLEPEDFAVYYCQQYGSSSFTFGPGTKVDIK
notes: MICA.2 with a Ser inserted between residues 95 and 96 in the light chain; also called MICA.38_3F5_S95k
simultaneous binding (0 = no, 1 = yes) [1]: 0 | simultaneous binding (0 = no, 1 = yes) [2]: 0 | simultaneous binding (0 = no, 1 = yes) [3]: 1 | Kd [4]: 104 nM | koff [4]: 0.0426 s⁻¹ | kon [4]: 410000 M⁻¹ s⁻¹ | Kd [5]: 130 nM | koff [5]: 0.078 s⁻¹ | kon [5]: 600000 M⁻¹ s⁻¹ | Kd [6]: 123 nM | koff [6]: 0.127 s⁻¹ | kon [6]: 1.03e+06 M⁻¹ s⁻¹ | Kd [7]: 126 nM | koff [7]: 0.0502 s⁻¹ | kon [7]: 397000 M⁻¹ s⁻¹ | simultaneous binding (0 = no, 1 = yes) [8]: 0 | simultaneous binding (0 = no, 1 = yes) [9]: 0

B2: 16A5 (antibody, V domains shown)
VH: QVQLVESGGDVVQPGRSLRLSCAASGFTFSNYNIHWVRQAPGKGLEWVAVIRYDGINKYYADSVKGRFIISRDNSKNTLYLQMNSLRAEDTAVYYCASGPPDAFNIWGQGTMVTVSS
VL: AIQLTQSPSSLSASVGDRVTITCRASQGISSALAWYQQKPGKVPKSLIYDASSLESGVPSRFSGSGSGTDFTLTISSLQPEDFATYYCQQFNSYPITFGQGTRLEIK
notes: Hybridoma antibody; #1 and #2 are two hybridoma lines from the same clone; also called 16A5 (#1); 16A5 (#2)
Kd [10]: 6.89 nM | Kd [11]: 4.55 nM | Kd [12]: 147 nM | Kd [13]: 12.9 nM | EC50 [14]: 8.16 nM and 21.6 nM | EC50 [15]: 0.856 nM and 2.38 nM | EC50 [16]: 9.26 nM and 13.8 nM | koff [17]: 1.72 s⁻¹ | koff [18]: 1.72 s⁻¹ | koff [19]: 0.0104 s⁻¹ | koff [20]: 2.15 s⁻¹

Source: US20220281980A1 (Bristol-Myers Squibb, published 2022)
